Values of other authors in paper PMC2775957.

Assays:
CMG2 (Homo sapiens) = CMG2 (Homo sapiens) (UniProt P58335)
TEM8 (Homo sapiens) = TEM8 (Homo sapiens) (UniProt Q9H6X2)

Substance: Protective antigen (from UniProt P13423)
- Kd (CMG2 (Homo sapiens)): 1 nM
- Kd (TEM8 (Homo sapiens)): 10 nM
